Measurements published in patent US20100278801A1.
pKd, pKi: −log10 of the molar value. Read-outs that look alike come from different tables or passages of the source. Each block holds one substance with its values, some of them ahead of it.

Legend:
TGF-α [1] = biological target: TGF-α (UniProt P01135); settings: Fc fusion
Target sequence in this assay (P01135 40-89): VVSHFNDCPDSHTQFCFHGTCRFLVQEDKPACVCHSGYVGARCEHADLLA

NRG1-β [2] = biological target: NRG1-β (UniProt Q02297); settings: Fc fusion
Target sequence in this assay (Q02297 other isoform, or with tags, fused parts or gaps): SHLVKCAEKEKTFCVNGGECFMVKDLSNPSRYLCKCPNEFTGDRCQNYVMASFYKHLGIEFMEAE

HB-EGF = HB-EGF (UniProt Q99075); assay: biotin-ligand binding; settings: Fc fusion
TGF-α [3] = biological target: TGF-α (UniProt P01135); assay: biotin-ligand binding; settings: Fc fusion
Target sequence in this assay (P01135 40-89): as the sequence (P01135 40-89) above

NRG1-β [4] = biological target: NRG1-β (UniProt Q02297); assay: 125I-NRG1-β saturation binding, heterodimer immobilised on anti-Fc coated plate
Target sequence in this assay (Q02297 other isoform, or with tags, fused parts or gaps limits assumed): as the sequence (Q02297 other isoform, or with tags, fused parts or gaps) above

TGF-α [5] = biological target: TGF-α (UniProt P01135); assay: 125I-TGF-a saturation binding, heterodimer immobilised on anti-Fc coated plate; not saturated at 100 nM
Target sequence in this assay (P01135 40-89 limits assumed): as the sequence (P01135 40-89) above

EGF [6] = biological target: EGF (UniProt P01133); assay: Eu-EGF competition; settings: Fc fusion
Sequence of EGF (P01133 971-1023): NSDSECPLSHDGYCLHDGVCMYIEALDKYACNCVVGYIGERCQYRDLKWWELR

EGF [7] = biological target: EGF (UniProt P01133); assay: Eu-ligand saturation binding; settings: Fc fusion

Sequence of HB-EGF (Q99075 63-148): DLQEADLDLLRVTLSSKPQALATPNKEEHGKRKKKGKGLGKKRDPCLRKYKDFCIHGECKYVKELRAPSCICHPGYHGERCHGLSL

pKd (TGF-α [1]): 8.77
Substance: EGFRT15S:Fc homodimer (from UniProt P00533 25-645)

pKd (NRG1-β [2]): 7.77
Substance: HER3:Fc (from UniProt P21860 20-643)

pKd (HB-EGF): 8.80
pKd (TGF-α [3]): 7.37
Substance: RB222 (from UniProt P00533 25-645; P21860 20-643)

pKd (NRG1-β [4]): 8.80
pKd (TGF-α [5]): < 7.52
Substance: RB222 (from UniProt P00533 25-645; P21860 20-643) (Fc fusion)

pKi (EGF [6]): 9.05
pKd (EGF [7]): 9.11
Substance: RB242 (from UniProt P00533 25-645; P21860 20-643)
